# Results reported in the supplement of paper PMC9732359.
# ± gives the uncertainty stated by the source.
# Assay: protein stability index of a GFP-peptide fusion (yeast GPS) (PSI 1-4); higher = more stable; sorted into four equal gates, so the index is relative within each strain
# Outline: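 For each peptide, the protein stability index sums the read frequency in every gate after multiplying it by the gate number. Read frequencies came from plasmids that were PCR-amplified from each gate and Illumina-sequenced, with reads assigned to strains by barcodes. The gates were four equal bins of GFP/Cherry fluorescence ratio applied to mid-log yeast in leucine-free medium carrying a pooled library of tiled 17-residue yeast protein peptides fused downstream of GFP on a Cherry-expressing plasmid.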
Sequence,protein stability index (doa10∆),protein stability index (pdr5∆),protein stability index (san1∆),protein stability index (ubr1∆)
SRSTEKKNDMNTSAKNK [SIR4],2.52 ± 0.051,2.66 ± 0.05,2.9 ± 0.052,2.88 ± 0.047
SSDGALCMDSSYIGTII [POP1],3.09 ± 0.09,2.71 ± 0.083,3.04 ± 0.12,3.23 ± 0.14
SSEILSYLSNSLDTSAS [YML103C/NUP188],2.96 ± 0.091,2.7 ± 0.069,2.25 ± 0.063,2.65 ± 0.055
SSENNQIILAYIKYNIL [SRP68],3.06 ± 0.065,2.82 ± 0.074,2.92 ± 0.076,2.88 ± 0.062
SSFSKKTLTEEVTKSSH [YIL149C/MLP2],2.69 ± 0.054,2.88 ± 0.058,2.77 ± 0.071,3.09 ± 0.048
SSIQESLLSLVGHLSIL [ECM29],2.01 ± 0.045,1.75 ± 0.043,1.83 ± 0.053,1.6 ± 0.025
SSISVMGENEKPDVTYA [RPT3],2.92 ± 0.2,3.25 ± 0.1,3.12 ± 0.11,3.27 ± 0.083
SSLALVFALHKYKPTPL [SMC4],2.18 ± 0.052,2.18 ± 0.074,2.17 ± 0.088,2.93 ± 0.055
SSLEELLLKDQQTAKKL [ECM29],2.82 ± 0.091,2.99 ± 0.077,2.92 ± 0.1,2.95 ± 0.058
SSLLSRLISSKMPGGFT [FAS2],2.51 ± 0.069,2.41 ± 0.08,2.17 ± 0.094,2.89 ± 0.064
SSLRNQELLNAETLCFT [RPN3],2.89 ± 0.11,3.02 ± 0.15,3.22 ± 0.065,3.11 ± 0.091
SSNIVNENDSQAIITER [YIL149C/MLP2],3.14 ± 0.12,2.93 ± 0.086,2.07 ± 0.26,2.86 ± 0.057
SSNLYETIIEADKSLPS [YJR042W/NUP85],2.76 ± 0.054,2.97 ± 0.052,2.94 ± 0.039,2.96 ± 0.061
SSNPQSAYVKAFYQKGN [SMC1],1.87 ± 0.049,1.98 ± 0.047,1.96 ± 0.052,1.95 ± 0.033
SSNSQQSTPQPDDMVEI [ITC1],3.09 ± 0.064,2.74 ± 0.059,2.58 ± 0.054,2.87 ± 0.047
SSNVQQPQQQLGDMENN [RTT102],3.21 ± 0.19,3.29 ± 0.12,3.11 ± 0.088,3.21 ± 0.17
SSRFIKGGSLYGLGLIY [RPN2],2.07 ± 0.09,2.1 ± 0.088,2.38 ± 0.061,1.99 ± 0.06
SSRLEFVKGISRDIKAL [YML103C/NUP188],2.39 ± 0.081,1.81 ± 0.057,1.99 ± 0.085,1.62 ± 0.04
SSTDFSTCIVSLIRNNL [ECM29],2.7 ± 0.066,2.99 ± 0.092,2.41 ± 0.063,2.88 ± 0.054
SSTITGDVVLAAAYSHE [RPL5],2.32 ± 0.056,2.56 ± 0.06,2.61 ± 0.057,2.31 ± 0.058
SSTKPPGSVNSAAKYKD [NUT1],2.68 ± 0.064,2.64 ± 0.061,2.53 ± 0.1,2.93 ± 0.065
SSVNEDTFLPPPPPPPS [PRP8],2.73 ± 0.041,2.72 ± 0.04,2.44 ± 0.038,2.46 ± 0.037

Sequence,protein stability index (doa10∆),protein stability index (pdr5∆),protein stability index (san1∆),protein stability index (ubr1∆)
STAIKSLVALGIDPQDL [CDC53],2.29 ± 0.077,2.67 ± 0.066,2.81 ± 0.053,2.45 ± 0.049
STATRNVTMIDDLIHFT [COR1],2.68 ± 0.097,2.81 ± 0.092,2.82 ± 0.086,2.89 ± 0.085
STGDYTFTIQLLKLTKV [YML103C/NUP188],1.58 ± 0.075,2.92 ± 0.13,2.16 ± 0.12,2.51 ± 0.11
STIPTRENGKGGQIAHI [ROX3],3.01 ± 0.11,3.17 ± 0.092,2.98 ± 0.052,2.97 ± 0.19
STKSNKTRNPLTHSTPK [RPL8A],2.44 ± 0.29,1.95 ± 0.14,,1.88 ± 0.15
STLQHFQETLDSTVVYP [MED8],2.99 ± 0.068,3.11 ± 0.055,2.96 ± 0.055,3.17 ± 0.041
STSFSFNAPATGNGTTT [YOR098C/NUP1],2.73 ± 0.042,2.97 ± 0.037,3.03 ± 0.033,3.005 ± 0.028
STSLGIPDFRSSEGFYS [SIR2],1.85 ± 0.27,1.62 ± 0.089,,3.36 ± 0.14
STVKKKDIVNISIPKTC [REC8],2.71 ± 0.088,2.41 ± 0.063,2.53 ± 0.084,2.62 ± 0.054
SVALHRHSNALVDILPP [RPT3],1.63 ± 0.047,2.1 ± 0.056,2 ± 0.07,1.94 ± 0.041
SVANTPSEIPDAHKAEQ [SWI3],3.04 ± 0.066,3.25 ± 0.065,3.42 ± 0.077,3.03 ± 0.061
SVDDVLSALDHIGHSAL [DPB4],3.26 ± 0.2,3.53 ± 0.18,3.27 ± 0.083,3.46 ± 0.069
SVDESARIKDAFITQLE [YJL039C/NUP192],3.03 ± 0.12,2.61 ± 0.17,2.9 ± 0.16,2.87 ± 0.11
SVDICNNSKSRYPMNLL [ECM29],1.86 ± 0.1,2.35 ± 0.056,2.71 ± 0.077,1.31 ± 0.079
SVEWMKVSPSMCGVIVK [SIN4],1.74 ± 0.055,1.69 ± 0.051,1.69 ± 0.091,1.54 ± 0.063
SVHLIECYKQLFLTAPD [YCS4],1.52 ± 0.24,,,
SVINNYLREDQMIDTSI [NUT1],2.99 ± 0.074,3.32 ± 0.1,3.32 ± 0.083,2.84 ± 0.082
SVIQLCGGINDSIPYPQ [ECM29],3.16 ± 0.17,2.59 ± 0.23,2.57 ± 0.13,2.88 ± 0.078
SVIVDSKVTVPPSKHST [ESC2],2.75 ± 0.11,2.93 ± 0.089,2.72 ± 0.092,2.81 ± 0.049
SVKPHVVEPEHMADAKI [SIR4],2.68 ± 0.14,2.92 ± 0.14,3.1 ± 0.1,3 ± 0.17
SVLLQQLLTPGSKISSN [YGL172W/NUP49],2.46 ± 0.093,2.83 ± 0.089,3.09 ± 0.099,2.56 ± 0.14
